Source: patent US6428985 (REGENTS OF THE UNIVERSITY OF MICHIGAN, dated 2002)
Where a chain is given by its changes, count along the chain named. Numbers in names are those of the source.

Legend:
[1] = biological target: T1, mIL-10R1 on Ba/F3-mIL-10R1 cells (mouse pro-B cell line stably transfected with mIL-10R1) (murine, UniProt Q61727 17-575); assay: flow cytometry on Ba/F3-mIL-10R1 cells, 100 ng purified IL-10-myc-his, 4° C. for 2 h
T1 construct: whole, on cells; also called IL-10 receptor
T1 sequence (looked up): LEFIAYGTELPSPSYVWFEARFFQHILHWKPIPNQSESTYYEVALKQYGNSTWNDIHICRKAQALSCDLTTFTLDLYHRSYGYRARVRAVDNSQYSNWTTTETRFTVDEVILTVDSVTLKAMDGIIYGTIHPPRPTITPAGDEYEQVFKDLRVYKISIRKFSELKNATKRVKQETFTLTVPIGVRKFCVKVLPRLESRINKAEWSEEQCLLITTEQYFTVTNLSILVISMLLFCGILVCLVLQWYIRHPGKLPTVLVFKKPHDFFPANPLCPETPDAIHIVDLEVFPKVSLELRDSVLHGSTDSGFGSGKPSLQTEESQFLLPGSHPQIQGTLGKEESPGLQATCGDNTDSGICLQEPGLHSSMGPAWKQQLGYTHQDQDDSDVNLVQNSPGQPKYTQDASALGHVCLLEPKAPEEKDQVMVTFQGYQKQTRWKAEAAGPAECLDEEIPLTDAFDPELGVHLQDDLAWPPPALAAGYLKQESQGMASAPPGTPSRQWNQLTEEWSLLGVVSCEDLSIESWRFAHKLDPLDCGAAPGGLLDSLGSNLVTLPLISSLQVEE

[2] = biological target: T1, mIL-10R1 on Ba/F3-mIL-10R1 cells (mouse …); assay: flow cytometry on Ba/F3-mIL-10R1 cells

B1: purified hIL-10-myc-his (human IL-10 with carboxyl terminal myc-his tag) (ligand)
chain: SPGQGTQSENSCTHFPGNLPNMLRDLRDAFSRVKTFFQMKDQLDNLLLKESLLEDFKGYLGCQALSEMIQFYLEEVMPQAENQDPDIKAHVNSLGENLKTLRLRLRRCHRFLPCENKSKAVEQVKNAFNKLQEKGIYKAMSEFDIFINYIEAYMTMKIRN
notes: also called C-terminal myc-his tagged hIL-10; not shown: C-terminal myc-his tag from the pcDNA3.1-myc-his vector
binding result [1]: binds

B2: hIL-10 with amino terminal FLAG tag (pFLAGCMV-1 construct) (ligand, not shown: small tags and cut ends)
chain: B1 chain
notes: also called amino terminal FLAG construct of hIL-10
binding result [2]: binds

B3: purified hIL-10(I87A)-myc-his (human IL-10 with the single mutation, carboxyl terminal myc-his tag) (ligand)
chain: B1 chain with I87A
notes: also called hIL-10(187A); Ala87 version of IL-10; not shown: C-terminal myc-his tag from the pcDNA3.1-myc-his vector
binding result [1]: binds
